Assay [1] has as its target CarD T8C labelled with BODIPY-FL (Mycobacterium tuberculosis) (UniProt P9WJG3). Kind of assay: fluorescence polarisation.
For assay [2], the target named is Mycobacterium tuberculosis RNA polymerase, wild type (Mycobacterium tuberculosis) (UniProt P9WGY9). The experiment in a line: fluorescence polarisation.

The results in this text go back to publication PMC7718890, “High-throughput screening to discover inhibitors of the CarD·RNA polymerase protein–protein interaction in Mycobacterium tuberculosis” (Scientific Reports, 2020).

With “Mycobacterium tuberculosis RNA polymerase, wild type (from UniProt P9WGY9 8-1140) (complex)”, in assay [1], the Kd turned out to be 65 nM. “Wild-type MTB CarD, unlabeled (from UniProt P9WJG3 1-162) (natural protein)”: the Ki in assay [2] came to 8 nM.
